Consider eleven molecules from US20240368286A1 (SHANGHAI JMT BIO TECHNOLOGY, published 2024).

Holding throughout (assay): cell-based or functional assay
Test [1] deals with T1, Human GFRAL (hGFRAL) on HEK293 reporter cells with human RET (human, UniProt Q6UXV0 19-394).
T1 sequence (looked up): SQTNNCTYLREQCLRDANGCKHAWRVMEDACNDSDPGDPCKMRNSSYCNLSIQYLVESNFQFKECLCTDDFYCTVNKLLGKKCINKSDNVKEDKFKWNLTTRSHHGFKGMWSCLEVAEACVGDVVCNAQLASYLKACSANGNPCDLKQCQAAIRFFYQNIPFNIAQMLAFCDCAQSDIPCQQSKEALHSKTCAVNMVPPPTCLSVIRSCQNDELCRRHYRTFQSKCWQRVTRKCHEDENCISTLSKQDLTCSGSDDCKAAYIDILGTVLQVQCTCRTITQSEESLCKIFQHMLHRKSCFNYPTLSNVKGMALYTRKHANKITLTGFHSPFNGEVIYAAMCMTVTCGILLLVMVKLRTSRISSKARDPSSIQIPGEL

Test [2] concerns the target T2, Mouse GFRAL (mGFRAL) on HEK293 reporter cells with mouse RET (mouse, UniProt Q6SJE0 20-393).
T2 sequence (looked up): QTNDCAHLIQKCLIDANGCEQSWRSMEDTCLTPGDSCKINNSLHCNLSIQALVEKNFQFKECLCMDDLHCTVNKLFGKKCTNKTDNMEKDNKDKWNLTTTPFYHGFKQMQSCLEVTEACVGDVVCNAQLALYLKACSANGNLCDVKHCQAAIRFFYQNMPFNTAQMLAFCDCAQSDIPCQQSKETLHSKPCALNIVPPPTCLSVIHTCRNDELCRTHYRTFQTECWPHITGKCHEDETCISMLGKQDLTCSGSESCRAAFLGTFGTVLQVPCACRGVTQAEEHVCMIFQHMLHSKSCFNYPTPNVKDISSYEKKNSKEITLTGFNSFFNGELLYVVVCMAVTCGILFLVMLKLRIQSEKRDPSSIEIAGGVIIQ

Test [3] concerns the target T1, Human GFRAL (hGFRAL) on HEK293 reporter …. The source holds these as a separate data set.
For test [4], the target named is T2, Mouse GFRAL (mGFRAL) on HEK293 reporter …. This is another data set of the same source.

Where two headings read alike, the source gives them in different places.

B1: 90E1 (antibody, V domains shown)
VH: EVQLQQSGPELVKPGASVKMSCKASGYTFTSYVIHWVKQEPGQGLEWIGYINPYNDDINYNEKFKGKATLTSDKSSSTAYMEFSSLTSEDSAVYYCARYDYDWYFDVWGAGTAVTVSS
VL: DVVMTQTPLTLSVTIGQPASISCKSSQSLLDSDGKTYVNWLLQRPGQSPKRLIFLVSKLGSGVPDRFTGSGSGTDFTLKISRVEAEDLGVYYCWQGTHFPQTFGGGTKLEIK
For B1, the “IC50 (nM), luciferase reporter gene assay, Human GFRAL/human RET” value (“IC50 (nM) … Human GFRAL/human RET” for short) in test [1] came to 81.4 nM. Also, the “IC50 (nM), luciferase reporter gene assay, Mouse GFRAL/mouse RET” value (“IC50 (nM) … Mouse GFRAL/mouse RET” below) in test [2] came out at 75.5 nM.

B2: 2D4H6aL6b (antibody, V domains shown)
VH: EVQLVESGGGLVKPGGSLRLSCAASGFTFSSFVMSWVRQAPGKGLEWVASITSGGTTFYPESVRGRFTISRDNAKNTLYLQMSSLRAEDTAVYYCARGPPQFSSLSMDYWGQGTTVTVSS
VL: DIQMTQSPSSLSASVGDRVTITCKASQNVGTAVSWFQQKPGKAPKLLIYSASNRYTGVPSRFSGSGSGTDFTLTISSLQPEDFATYYCQQYSSLFTFGGGTKLEIK
For the molecule B2, the “IC50 (nM) … Human GFRAL/human RET” value in test [3] was 24.4 nM. The “IC50 (nM) … Mouse GFRAL/mouse RET” value in test [4] came to 1.4 nM.

B3: 2D4H6cL6c (antibody, V domains shown)
VH: EVQLVESGGGLVKPGGSLRLSCAASGFTFSSFVMSWVRQAPGKGLEWVASITSGGTTFYPDSVKGRFTISRDNARNILYLQMSSLRAEDTAVYYCARGPPQFSSLSMDYWGQGTTVTVSS
VL: DIQMTQSPSSLSASVGDRITITCKASQNVGTAVSWFQQKPGKAPKLLIYSASNRYTGVPDRFSGSGSGTDFTLTISSLQPEDFATYYCQQYSSLFTFGGGTKLEIK
On to B3, for which the “IC50 (nM) … Human GFRAL/human RET” value in test [3] was 22.5 nM. Besides, the “IC50 (nM) … Mouse GFRAL/mouse RET” value in test [4] stood at 1.3 nM.

B4: 26D7H5eL5c (antibody, V domains shown)
VH: QVQLVQSGSELKKPGASVKVSCKVSGYTFTDYGMNWVRQAPGQGLEWVGWINTYTGEPTYADDFKDRFVFSLDTSVSTAYLQISSLKAEDTAVYYCARRYGYDAGIDAWGQGTTVTVSS
VL: DIVLTQSPASLAVSPGQRATITCRASESVDSYGNNLMHWYQQKPGQPPKLLIYLASYLESGVPARFSGSGSGTDFTLTINPVEANDTANYYCQQNNESPWTFGGGTKLEIK
Regarding B4, in test [3], the “IC50 (nM) … Human GFRAL/human RET” value stood at 8.3 nM. Also, the “IC50 (nM) … Mouse GFRAL/mouse RET” value in test [4] was determined as 0.7 nM.

B5: 26D7H5fL5c (antibody, V domains shown)
VH: QIQLVQSGSELKKPGASVKISCKVSGYTFTDYGMNWVRQAPGQGLEWVGWINTYTGEPTYADDFKDRFVFSLDASVSTAYLQISSLKAEDTAVYYCARRYGYDAGIDAWGQGTTVTVSS
VL: DIVLTQSPASLAVSPGQRATITCRASESVDSYGNNLMHWYQQKPGQPPKLLIYLASYLESGVPARFSGSGSGTDFTLTINPVEANDTANYYCQQNNESPWTFGGGTKLEIK
In the case of B5, in test [3], the “IC50 (nM) … Human GFRAL/human RET” value was 8.9 nM. The “IC50 (nM) … Mouse GFRAL/mouse RET” value in test [4] came to 0.4 nM.

B6: 26D7-mVH + mVL (antibody, V domains shown)
VH: QIQLVQSGPELKKPGETVKISCKVSGYTFTDYGMNWVKQTPGKDLKWVGWINTYTGEPTYADDFKDRFAFSLEASASTAYLQINNLKNEDTATYFCARRYGYDAGIDCWGQGTTLTVSS
VL: NIVLTQSPPSLAVSLGQRATISCRASESVDSYGNNLMHWYQQKPGQPPKLLIYLASYLESGVPARFSGSGSRTDFTLTIDPVEADDAATYYCQQNNEDPWTFGGGTKLEIK
As for B6, in test [3], the “IC50 (nM) … Human GFRAL/human RET” value came to 8.7 nM. The “IC50 (nM) … Mouse GFRAL/mouse RET” value in test [4] amounted to 0.7 nM.

B7: 2D4-mVH + mVL (antibody, V domains shown)
VH: EVNLVESGGGLVKPGGPLKLSCAASGFTFSSFVMSWVRQTPEKRLEWVASITSGGTTFYPDSVKGRFTISRDNARNILYLQMSNLRSGDTAMYYCARGPPQFSSLSMDYWGQGTSVTVSS
VL: DIVMTQSQKFMSTSVGDRITITCKASQNVGTAVSWFQQKPGQVPKLLIYSASNRYTGVPDRFTGSGSGTEFTLTISNIQSEDLADYFCQQYSSLFTFGSGTKLEIK
In the case of B7, in test [3], the “IC50 (nM) … Human GFRAL/human RET” value worked out at 23.8 nM. The “IC50 (nM) … Mouse GFRAL/mouse RET” value in test [4] was 1.4 nM.

B8: 26D7H1aL2a (antibody, V domains shown)
VH: QVQLVQSGAEVKKPGASVKVSCKASGYTFTDYGMNWVRQAPGQGLEWMGWINTYTGEPTYADDFKDRVTMTTDTSTSTAYMELRSLRSDDTAVYYCARRYGYDAGIDAWGQGTLVTVSS
VL: EIVLTQSPGTLSLSPGERATLSCRASESVDSYGNNLMHWYQQKPGQAPRLLIYLASYLESGVPDRFSGSGSGTDFTLTISRLEPEDFATYYCQQNNESPWTFGQGTKVEIK
As to B8, the “IC50 (nM) … Human GFRAL/human RET” value in test [3] amounted to 2.6 nM. The “IC50 (nM) … Mouse GFRAL/mouse RET” value in test [4] was 7.7 nM.

B9: 26D7H2aL2a (antibody, V domains shown)
VH: QVQLVQSGAEVKKPGASVKVSCKVSGYTFTDYGMNWVRQAPGQGLEWVGWINTYTGEPTYADDFKDRFTFTLDTSTSTAYMELRSLRSDDTAVYFCARRYGYDAGIDAWGQGTLVTVSS
VL: EIVLTQSPGTLSLSPGERATLSCRASESVDSYGNNLMHWYQQKPGQAPRLLIYLASYLESGVPDRFSGSGSGTDFTLTISRLEPEDFATYYCQQNNESPWTFGQGTKVEIK
With B9, the “IC50 (nM) … Human GFRAL/human RET” value in test [3] came to 7.6 nM. In addition, in test [4], the “IC50 (nM) … Mouse GFRAL/mouse RET” value was determined as 1.6 nM.

B10: 26D7H2dL2a (antibody, V domains shown)
VH: QVQLVQSGAEVKKPGASVKISCKASGYTFTDYGMNWVRQAPGQGLKWMGWINTYTGEPTYADDFKDRVTFTLDASTSTAYMELRSLRSDDTAVYYCARRYGYDAGIDAWGQGTLVTVSS
VL: EIVLTQSPGTLSLSPGERATLSCRASESVDSYGNNLMHWYQQKPGQAPRLLIYLASYLESGVPDRFSGSGSGTDFTLTISRLEPEDFATYYCQQNNESPWTFGQGTKVEIK
With B10, the “IC50 (nM) … Human GFRAL/human RET” value in test [3] is 6.5 nM. The “IC50 (nM) … Mouse GFRAL/mouse RET” value in test [4] was 3 nM.

B11: 26D7H4aL4a (antibody, V domains shown)
VH: QIQLVQSGAEVKKPGASVKISCKVSGYTFTDYGMNWVRQTPGQGLKWVGWINTYTGEPTYADDFKDRFTFTLDASTSTAYLEIRSLRSDDTAVYFCARRYGYDAGIDAWGQGTLLTVSS
VL: EIVLTQSPGTLSVSPGERATISCRASESVDSYGNNLMHWYQQKPGQAPRLLIYLASYLESGVPARFSGSGSRTDFTLTISRVEPEDFATYYCQQNNESPWTFGQGTKLEIK
With B11, the “IC50 (nM) … Human GFRAL/human RET” value in test [3] was 5.7 nM. Moreover, the “IC50 (nM) … Mouse GFRAL/mouse RET” value in test [4] was 0.1 nM.
